Consider three molecules from patent US20220073599A1 (Hoffmann-La Roche, published 2022).

The target of experiment [1] is T1, human VEGFA-121-His (human, UniProt P15692 181-395).
T1 construct: Prepared in-house; not shown: His tag
T1 sequence: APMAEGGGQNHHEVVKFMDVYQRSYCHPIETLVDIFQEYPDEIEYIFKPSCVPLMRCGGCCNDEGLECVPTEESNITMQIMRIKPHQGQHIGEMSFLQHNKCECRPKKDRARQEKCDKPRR
Nature of the experiment: SPR, VEGF-A121-His captured by anti-His antibody, Fab injected, single cycle kinetics; marked outside of Biacore specification. As for the experimental part: An anti-His capturing antibody (GE Healthcare 28995056) was immobilized to a Series S Sensor Chip C1 (GE Healthcare BR100535) using standard amine coupling chemistry resulting in a surface density of approximately 600 resonance units (RU). As running and dilution buffer, HBS-P+ (10 mM HEPES, 150 mM NaCl pH 7.4, 0.05% Surfactant P20) was used. […] A dilution series of the tested antibody (3.7-300 nM, 1:3 dilution) was successively injected for 60 s each, dissociation was monitored for 3600 s at a flow rate of 30 μl/min (single cycle kinetics). The surface was regenerated by injecting 10 mM Glycine pH 1.5 for 60 s at a flow of 5 μl/min. […] Curve fitting was performed using the 1:1 Langmuir binding model within the Biacore® evaluation software.
(§1) Binding kinetics to human VEGF-A and human ANG2 for the candidate antibodies were assessed as described above using the indicated Fab fragments (amino acid sequence as illustrated in Table 4).
For orientation: Surface plasmon resonance follows binding to a sensor surface in real time, without labels.

For experiment [2], the target named is T2, human Ang2-RBD (human, UniProt O15123 275-496, limits assumed).
T2 construct: also called Human ANG2 (SPR); Angiopoietin 2-RBD
T2 sequence: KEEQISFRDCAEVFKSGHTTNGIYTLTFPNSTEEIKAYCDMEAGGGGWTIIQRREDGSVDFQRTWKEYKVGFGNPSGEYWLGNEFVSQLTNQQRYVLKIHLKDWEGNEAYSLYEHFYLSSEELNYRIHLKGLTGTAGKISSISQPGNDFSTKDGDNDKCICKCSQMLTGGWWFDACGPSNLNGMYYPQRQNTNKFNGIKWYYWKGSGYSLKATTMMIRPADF
The experiment in a line: SPR, Fab captured by anti-Fab antibody, Ang2-RBD injected, 25 C, 1:1 fit. On the procedure: (§2) An anti-Fab capturing antibody (GE Healthcare 28958325) was immobilized to a Series S Sensor Chip C1 (GE Healthcare BR100535) using standard amine coupling chemistry resulting in a surface density of approximately 800 resonance units (RU). As running and dilution buffer, HBS-P+ (10 mM HEPES, 150 mM NaCl pH 7.4, 0.05% Surfactant P20) was used, the temperature of measurement was 25° C. The tested antibody was captured by injecting a 50 nM solution for 60 sec at a flow of 5 μl/min. Association was measured by injection of human Ang2-RBD in various concentrations in solution for 180 sec at a flow of 30 μl/min (0.07 nM-50 nM, 1:3 dilution). The dissociation phase was monitored for up to 900 sec and triggered by switching from the sample solution to running buffer at a flow rate of 30 μl/min. The surface was regenerated by injection of 10 mM Glycine pH 2.1 for 60 s at a flow rate of 30 μl/min. Bulk refractive index differences were corrected by subtracting blank injections and by subtracting the response obtained from the reference flow cell without captured tested antibody. Curve fitting was performed using the 1:1 Langmuir binding model within the Biacore® evaluation software.
as §1

Experiment [3] deals with T3, human Ang2-RBD-muFc (human, UniProt O15123 275-496, limits assumed).
T3 construct: also called Human ANG2 (KinExA); not shown: murine Fc (muFc)
T3 sequence: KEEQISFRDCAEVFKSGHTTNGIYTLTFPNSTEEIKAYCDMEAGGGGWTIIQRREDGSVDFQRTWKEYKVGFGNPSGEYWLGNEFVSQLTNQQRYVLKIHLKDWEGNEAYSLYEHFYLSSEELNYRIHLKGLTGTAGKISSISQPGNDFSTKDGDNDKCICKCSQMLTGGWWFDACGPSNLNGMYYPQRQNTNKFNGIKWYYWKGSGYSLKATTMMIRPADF
Nature of the experiment: KinExA equilibrium titration in solution, constant Ang2-RBD-muFc. On the procedure:
All KinExA® experiments were performed at room temperature (RT) using PBS pH 7.4 with 0.01% BSA and 0.01% Tween® 20 (BioRad, #161-0781) as running buffer. […] A flow rate of 0.25 ml/min was used. A constant amount of Ang2-RBD-muFc (50 pM and in a second experiment 500 pM) was titrated with tested antibody by twofold serial dilution starting at 4 nM (concentration range 1.95 pM-4000 pM). Antigen-antibody complexes were incubated at RT for at least 8 h to allow equilibrium to be reached. Equilibrated mixtures were then drawn through a column of Anti-Ang2 antibody (MAB098) coupled beads in the KinExA® system at a volume of 750 μl for 50 pM constant Ang2 and at a volume of 188 μl for 500 pM constant Ang2 permitting unbound Ang2 to be captured by the beads without perturbing the equilibrium state of the solution. Bound Ang2 was detected using a second biotinylated anti-Ang2 antibody (BAM0981) with a concentration of 250 ng/ml and following by an injection of 250 ng/ml Streptavidin Alexa Fluor™ 647 conjugate in sample buffer. Each sample was measured in duplicates for all equilibrium experiments. The KD was obtained from non-linear regression analysis of the data using a one-site homogeneous binding model contained within the KinExA® software (Version 4.0.11) using the “standard analysis” method. The software calculates the KD and determines the 95% confidence interval by fitting the data points to a theoretical KD curve. The 95% confidence interval is given as KD low and KD high.
For orientation: A kinetic exclusion assay measures how much of one partner remains free in solution.

The target in experiment [4] is T2, human Ang2-RBD. Nature of the experiment: SPR, Fab captured by anti-Fab antibody, Ang2-RBD injected, 25 C. As for the experimental part: as §2, §1
Experiment [5] concerns the target T4, human VEGFA-121 (human, UniProt P15692 181-395).
T4 construct: sources differ (in-house, R&D, Peprotech); also called hVEGF-A121
T4 sequence: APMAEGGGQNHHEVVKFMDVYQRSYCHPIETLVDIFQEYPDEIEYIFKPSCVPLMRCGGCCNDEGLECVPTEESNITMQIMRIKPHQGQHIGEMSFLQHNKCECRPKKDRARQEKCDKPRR
The experiment in a line: SPR, Fab captured by anti-Fab antibody; 1) VEGFA-121 alone, then buffer; final signal in % of the sum of the single signals. As for the experimental part: (§3) The bispecific Fab was captured by injecting a 6.5 μg/ml solution for 60 sec at a flow of 5 μl/min. Independent binding of each ligand to the bispecific Fab was analysed by determining the active binding capacity for each ligand, either added sequentially or simultaneously (flow of 10 μl/min): [0359] […] [0360] 2) Injection of human Ang2 with a concentration of 5 μg/ml for 60 sec (identifies single binding of the antigen) [0361] […] [0362] […] [0363]
(§4) Independent binding of candidate antibodies to human VEGF-A and human ANG2 was analysed by SPR as described above in the “Materials & general methods” section.

The target of experiment [6] is T2, human Ang2-RBD. Nature of the experiment: SPR, Fab captured by anti-Fab antibody; 3) VEGFA-121 first, then Ang2-RBD (binding of Ang2 in the presence of VEGFA-121); final combined signal of both antigens. On the procedure:
as §3, §4

B1: bispecific anti-VEGF-A/anti-ANG2 Fab fragment P1AA0902 (Fab, V domains shown)
VH: DDHLVESGGGLVKPGGSLRLSCATADFFEYDDMSWVRQAPGKGLEWVGSISGRGDHKYLNTKFIGRFTISRDDSKNTLYLQMNSLRAEDTAVYYCARDVGFFDWWGQGTLVTVSS
VL: AIYMHQEPSSLSASVGDRVTITCHGSYWLNSELAWYQQKPGKAPKLLIFDGDFKVFDVPSRFSGSGSHEDYTLTISSLQPEDFATYYCQQYRYHPYTFGHGTKVEIKR
notes: Bispecific Fab with two paratopes in one VH/VL pair
The term Kd denotes the concentration at which binding is half-saturated. Low readings indicate higher affinity, high ones lower affinity. One may read the koff as the first-order rate constant of dissociation. A high value points to fast dissociation. As usually defined, the kon is the rate constant with which the complex forms. The low end stands for slow association, the high end for fast association. For B1, the Kd was found to be 11 pM in experiment [1], 19 pM in experiment [2] and 2.75 pM in experiment [3]. In addition, the koff in experiment [1] stood at 8.27e-06 s⁻¹; in experiment [2], 0.000106 s⁻¹. The kon in experiment [2] was 5.51e+06 M⁻¹ s⁻¹. In experiment [4], the “t1/2” value was found to be 1.82 h. Moreover, the “Signal [%]” value in experiment [5] amounted to 50%; in experiment [6] it was 85%.

B2: bispecific anti-VEGF-A/anti-ANG2 Fab fragment P1AA8906 (Fab, V domains shown)
VH: DFQLVESGGGLVKPGGSLRLSCAASYEFEYDDMSWVRQAPGKGLEWVGSISPKGGSTYYNTKFIGRFTISRDNSKNTLYLQMNSLRAEDTAVYYCARDVGFFDMWGQGTLVTVSS
VL: AIYMHQEPSSLSASVGDRVTITCHGSYWLSNYLAWYQQKPGKAPKLLIFDARWLVHGVPSRFSGSGSHEDYTLTISSLQPEDFATYYCQQYRYHPYTFGHGTKVEIKR
notes: Bispecific Fab with two paratopes in one VH/VL pair (DutaFab); CH1 and Ckappa
As to B2, the Kd came out at 3 pM in experiment [1], 4550 pM in experiment [2] and 7180 pM in experiment [3]. The figures for the dissociation rate constant (koff) in experiment [1] and in experiment [2] were 4.53e-06 s⁻¹ and 0.032 s⁻¹, respectively. In experiment [2], this molecule showed an on-rate constant (kon) of 7.03e+06 M⁻¹ s⁻¹. Besides, in experiment [4], the “t1/2” value is 0.00667 h. Besides, the “Signal [%]” value in experiment [5] was found to be 50%; in experiment [6] it was 82%.

B3: bispecific anti-VEGF-A/anti-ANG2 Fab fragment P1AD9820 (Fab, V domains shown)
VH: SEHLVESGGGLVKPGGSLRLSCATADFFEYDDMSWVRQAPGKGLEWVGSISPKGDHKYLNTKFIGRFTISRDDSKNTLYLQMNSLRAEDTAVYYCARDVGFFDWWGQGTLVTVSS
VL: AIYMHQEPSSLSASVGDRVTITCHGSYWLNSEVAWYQQKPGKAPKLLIFDGDFKVYEVPSRFSGSGSHEDYTLTISSLQPEDFATYYCQQYRYHPYTFGHGTKVEIKR
notes: Bispecific Fab with two paratopes in one VH/VL pair; also called P1AD9820 Fab
Regarding B3, the Kd worked out at 8 pM in experiment [1], 8 pM in experiment [2] and 1.72 pM in experiment [3]. The molecule further yielded a koff in experiment [2] of 5.78e-05 s⁻¹. In addition, the on-rate (kon) in experiment [2] was found to be 7.43e+06 M⁻¹ s⁻¹. The “t1/2” value in experiment [4] worked out at 3.33 h. In addition, the entries for the “Signal [%]” value in experiment [5] and in experiment [6] were 50% and 85%, respectively.
